Laboratory results published in paper doi:10.1101/2020.07.19.210252.

Biological target: FXR1-GST (Homo sapiens, UniProt P51114 1-621)
Assay: EMSA

FXR1-GST, sequence (P51114 whole entry): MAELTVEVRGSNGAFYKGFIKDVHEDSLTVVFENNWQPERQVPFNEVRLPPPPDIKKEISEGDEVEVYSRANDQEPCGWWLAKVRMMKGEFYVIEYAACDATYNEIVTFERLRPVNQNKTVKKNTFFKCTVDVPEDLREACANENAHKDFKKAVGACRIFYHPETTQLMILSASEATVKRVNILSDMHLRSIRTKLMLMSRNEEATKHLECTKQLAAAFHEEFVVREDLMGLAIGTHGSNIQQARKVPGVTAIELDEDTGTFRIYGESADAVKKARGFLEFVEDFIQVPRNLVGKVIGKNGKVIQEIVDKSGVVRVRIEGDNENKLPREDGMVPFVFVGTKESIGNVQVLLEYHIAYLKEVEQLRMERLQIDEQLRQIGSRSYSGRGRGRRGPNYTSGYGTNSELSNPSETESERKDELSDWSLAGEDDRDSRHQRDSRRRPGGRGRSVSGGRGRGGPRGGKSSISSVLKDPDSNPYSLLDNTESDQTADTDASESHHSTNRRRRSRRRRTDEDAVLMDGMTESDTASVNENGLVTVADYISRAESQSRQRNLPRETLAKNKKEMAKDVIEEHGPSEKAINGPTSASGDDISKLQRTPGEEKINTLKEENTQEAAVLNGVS

B1: cMYC 3'UTR-ARE5 (ssRNA)
RNA: UUGUGAUUUAUUUUG
- binding result: binds

B2: cMYC 3'UTR-ARE2 (ssRNA)
RNA: UUUGUAUUUAAGAAU
- binding result: binds

B3: cMYC 3'UTR-ARE4 (ssRNA)
RNA: UUUUUAUUUAAGUAC
- binding result: binds

B4: cMYC 3'UTR-ARE1 (ssRNA)
RNA: GAAAGAUUUAGCCAU
- binding result: binds
